Assay: soluble on expression in E. coli; label from the status in PepcDB or PDB records
In the case of “MRRYASYPTYSSVHPVGLISRVSGASGIGCRMRRYASYPTYSSVHPVGLISRVSGASGIGCRMRRYASYPTYSSVHPVGLISHVSGASGIGCRMRRHPSYPTYSSVHLVGLISRVSDASGIGCRIQSTGVFYFTWLRANRLSSFSSYWLEHHHHHH”, the “soluble on expression in E. coli” value is reported as “not soluble”.
In the case of “MSLDGSVAAAGLGLGLPTTDSRGHYQLLLSGRALADRYRRIYTTALSDRDQAGSSTGHPASRNKKILNKKKLKRKQKSKSKVKTRSKSENVENTVIIPDIKLHSNPSAFNIYCNVRHCVLEWQKKETSLAAASKNSVQSGESDSDEEEESREPPIKLPKIIEVGLCEVFELIKETRFSHPSLCLRSLQALLNVLQGQQPEGLQSEPPEVLESLFQLLLEITVRSTGMNDSTGQSLTALSCACLFSLVASWGETGRTLQAISAILTNNGSHACQTIQVPTILNSLQRSVQAVLVGKIQVQDWFSNGIKKAALMHKWPLKEVSVDEDDQCLLQNDGFFLYLLCKDGLYKIGSGYSGTVRGHIYNSTSRIRNRKEKKSWLGYAQGYLLYRDLNNHSMTAIRISPETLEQDGTVLLPDCHTEGQNILFTDGEYINQIAASRDDGFVVRIFATSTEPVLQQELQLKLARKCLHACGISLFDLEKDLHIISTGFDEESAILGAGREFALMKTANGKIYYTGKYQSLGIKQGGPSAGKWVELPITKSPKIVHFSVGHDGSHALLVAEDGSVFFTGSASKGEDGESTKSRRQSKPYKPKKIIKMEGKIVVYTACNNGSSSVISKDGELYMFGKDAIYSDSSSLVSDLKGHFVTQVAMGKAHTCVLMKNGEVWTFGVNNKGQCGRDTGAMNQGGKGFGVENMATAMDEDLEEELDEKDEGHHHHHH”, the “soluble on expression in E. coli” value is reported as “not soluble”.
In the case of “MSLGVQPPNFSWVLPGRLAGLALPRLPAHYQFLLDLGVRHLVSLTERGPPHSDSCPGLTLHRLRIPDFCPPAPDQIDRFVQIVDEANARGEAVGVHCALGFGRTGTMLACYLVKERGLAAGDAIAEIRRLRPGSIETYEQEKAVFQFYQRTKEGHHHHHH”, the “soluble on expression in E. coli” value is reported as “soluble”.
In the case of “MHTAEFLETEPTEISSVLAGGYNHPLLRQWQSERQLTKNMLIFPLFISDNPDDFTEIDSLPNINRIGVNRLKDYLKPLVAKGLRSVILFGVPLIPGTKDPVGTAADDPAGPVIQGIKFIREYFPELYIICDVCLCEYTSHGHCGVLYDDGTINRERSVSRLAAVAVNYAKAGAHCVAPSDMIDGRIRDIKRGLINANLAHKTFVLSYAAKFSGNLYGPFRDAACSAPSNGDRKCYQLPPAGRGLARRALERDMSEGADGIIVKPSTFYLDIMRDASEICKDLPICAYHVSGEYAMLHAAAEKGVVDLKTIAFESHQGFLRAGARLIITYLAPEFLDWLDEEN”, the “soluble on expression in E. coli” value is reported as “soluble”.
With “MSADNLLLDFTSPGAIPPDPAEVVRRVVDETQTTMRALESLLENERIEDMTGWRLLAMFYLATDRLNDLAKIEKQYKSITGVSLSADLKQKYPQWFNGEAVSHPVVFEIPKKITAAALPDSIIIQRGQCSPGGILLDFSQVQEIDNDGLKKLAQLFSSLAQENTRPKLRQADRFITCLQNKAETGTGTRAIWDVLFAYERFRDDREAFEEKAIKFAVLYGISPPSWE” the “soluble on expression in E. coli” value was “not soluble”.
With “MADDLGLDLGKKKKSKKVIKIDGDDAPVETGVEAVEDGLGELNLGAKKKKKTPKTAGEEVVEEKVPTLEIGIGAQNLIDAKGAWPDYTYEEALTLVYQVMKDKNPDFAGDKKKFAIKLPEVARAGSKKTAFSNFLEICRLMKRQDKHVLQFLLAELGTTGSIDGSNCLIVKGRWQQKQFESVLRKYIKEYVMCHTCKSPETQLTKDTRLFFLQCTNCGSRCSVTAIKSGFKAVVGKRAAIRRAEEATAGK” the “soluble on expression in E. coli” value was “not soluble”.
With “MGFTTVAKEEKVTKVAEVFHSVAAKYDIMNDLMSGGIHRLWKRFTIDCSGARPGQRILDLGGGTGDLTAKFSRIVGDQGHVVLADINNSMLNVGRDKLRDNGIVGNVHYVQANAEELPFPDDYFDVITISFCLRNVTDKDKALRSMFRVLKPGGRLLVLEFSKPVLEPLSKVYDAYSFHLLPKMGELVANDAESYRYLAESIRMHPDQETLEGMMQDAGFENTKYYNLTGGIVALHRGLEHHHHHH” the “soluble on expression in E. coli” value was “not soluble”.
For “MAHHHHHHMANSKFSYVKLFEEERKILLNCYFIVRIDGCDFKHFVKAHNYNKPNDIKGLNLMNECALDILKKFDDIDLCYGHSDEYSFLFNKSTKLWNRRYDKILTNVVSYFTSCFLYKWKNYFQKEMLYAPSFDARIVVYPNEKEIKDYFSWRQVDCHINTQYNECFWNLIRQANYTNDEAHKFLLTTQTKDKNELLFSRFNINYNNLPEIFRRGTIIIRNKTFQKKNEALGTIYNNDTANNIDDNNNNNNNNNNTFNDNNDIENFEKLKKECLPKFIISHENLVSEKFWDKYDYIFKKKKDLEKK”, the “soluble on expression in E. coli” value was “not soluble”.
With “MAHHHHHHMASTDEVVLSENRALRVECEAQEVEIAQLKNYLHMSVTKPDLCFGQQRVTLNKCLNSFPEKAWQKLIDETPEVDSPAIITALEDQLADKNKHLTACLQEISNLRSRSGDGKTKPDSITDGNTAHLLSQITFLHNEVERLEQQVNAVRAAGKEELRVMTIEYNDKLQLREKENRLLTEQLRGRKNHLADGEDMAARTKTLESQLATAGIRKKFFTHREKQFPGKNPKIRGCY” the “soluble on expression in E. coli” value was “not soluble”.
With “MKSHDLKKALCQWTAMLALVVSGAVWAANGVDFSQSPEVSGTQEGAIRMPKEQDRMPLNYVNQPPMIPHSVEGYQVTTNTNRCLQCHGVESYRTTGAPRISPTHFMDSDGKVGAEVAPRRYFCLQCHVPQADTAPIVGNTFTPSKGYGK” the “soluble on expression in E. coli” value was “soluble”.
For “SMTTNVGDSTLADLLDHSCTSGSGSGLPFLVQRTVARQITLLECVGKGRYGEVWRGSWQGENVAVKIFSSRDEKSWFRETELYNTVMLRHENILGFIASDMTSRHSSTQLWLITHYHEMGSLYDYLQLTTLDTVSCLRIVLSIASGLAHLHIEIFGTQGKPAIAHRDLKSKNILVKKNGQCCIADLGLAVMHSQSTNQLDVGNNPRVGTKRYMAPEVLDETIQVDCFDSYKRVDIWAFGLVLWEVARRMVSNGIVEDYKPPFYDVVPNDPSFEDMRKVVCVDQQRPNIPNRWFSDPTLTSLAKLMKECWYQNPSARLTALRIKKTLTKID”, the “soluble on expression in E. coli” value was “soluble”.
With “MAFVLNGQDLDALATGGCFFGSGGGGTLSSAKGLLRHFNKGAYYPADQVTVVTVDEAVSAAEGDAVMVAYMGSPQAINGSSYPEGPVGAAENIQGKLATQGRKLAYIVPPESGALGFVVACLVAVRLGLKVIDADGAGRAVPSLPMLTYAAAAISPRPAVLVSQEGLQVELDVTPRDGENGSVTHQQDVAAIIENMMRPIVAAAQFKEFGGLAMWVMAPEQFSAALPIHGTLSRAVKTGHALAAGELDTAARMQDFLKRESGLLARPIFTGQFKAVEVSTGAGFDVGKMHIVSAEATCTVVYQNESMLAWDSRAAAPLVTAPDSLAYFVSGPGQSVYSNGDAVLADGTLSPSLKDRTVTLFAWQADAALRTPDGQILASFMGLLADMGYLGPYISVEAMQLATAGESRPLEHHHHHH” the “soluble on expression in E. coli” value was “not soluble”.
With “MIEVGDLKKGMFIIYDGEIYRVLEASKHFMGRGSGLIRTKLKNVKTGFVREVNFPSGEKVQEAELSFRKAQYLYRDGDHYYFMTLDDYEQYALSEEEIGDAKYYLVENMEVDLVFHEGTPIGIELPTTVELTVVETEPSFKGDTVSGGGKPAVLETGLKITVPYFIEVGDKIKVDTRTGEYVGRA” the “soluble on expression in E. coli” value was “soluble”.
With “MASYRKRENGLWEYRISYKTIDGKYKRKEKGGFKTKKLAQAAAIEIEKKLTQNILTNDEVTLYDFVKTWSEVYKRPYVKDKTWETYSKNFKHIKNYFQELKVKDITPLYYQKKLNEFGEKYAQETLEKFHYQIKGAMKVAVREQVVTFNFAEGAKVKSQVEPKNEEEDFLEEREYKALLALTRENIQYVSYFTLYLLAVTGLRFSEAMGLTWSDIDFKNGILDINKSFDYSNTQDFADLKNESSKRKVPIDSNTIDILREYKKNHWQANIKNRVCFGVSNSACNKLIKKIVGRKVRNHSLRHTYASFLILNGVDIVTISKLLGHESPDITLKVYTHQMEALAERNFEKIKNIFLVA” the “soluble on expression in E. coli” value was “not soluble”.
In the case of “MGSDKIHHHHHHLIIDANIYWLPNEIFVSEEMTNHFLRVVPREYGVYAYQREKNKNEREFVIEKPEGSENLNYFQGDYDLSVQLENMDQAGVDTGVMKLPGCQEWLDLDLCIQFNNQMAETVKKSKGRFRALAVVPPSGDADTLRELKRCIKELHMNGLQLSAHYGNKYLDDPMFRPLLKCASDLNIPVYVHHTPVPVEYNSLADYNNLRRSYGRCEDQTIAVTREIFSGMFKELPNLKMIHSMLGGGYFAYKNMFFPNDSGHGRFDANTSDVARSLKDNIYFEMSHAQPWGKAELKCAVEVLGADHIIYGSSYPVKKDWLIGGPQYVGDLPISQDEKDMLLFKNAERIYGIK”, the “soluble on expression in E. coli” value is reported as “not soluble”.
In the case of “MGSDKIHHHHHHMFRTNPLKIIMLGPSLLQQGGISGYEKLFLEYAPSEIHICHIITHEEGTIAFKIMVFLKAIWKFIWMLISEEIDIVQLEISQRGSVFRQSIMILLAWVFHKPIILHAHGSQFHIFYAGLANWIQKLLSWIFCKCQRLIVLSESWKSFYIDTLGLKSEQVVVFYNPVKVPTEVPSRSFSTKLNLLFLGRIGQRKGAFDLIKAFSSLPTEYQTRSIMVMAGDGDIEKARDLVTTLNLQDYIQLPGWIGSDERDILLSKADIFVLPSYNEGLPLAMLEAMAWELPVIVTPVGGIPEIVTQSENGLIVNPGNVEQLSNAIKSLIENEALRLSLGAKARTSVFPLDIKKHWVDFIDLYNLVLNTMEEHSKG”, the “soluble on expression in E. coli” value is reported as “not soluble”.
In the case of “MGSDKIHHHHHHMTTPRRALIVIDVQNEYVTGDLPIEYPDVQSSLANIARAMDAARAAGVPVVIVQNFAPAGSPLFARGSNGAELHPVVSERARDHYVEKSLPSAFTGTDLAGWLAARQIDTLTVTGYMTHNCDASTINHAVHSGLAVEFLHDATGSVPYENSAGFASAEEIHRVFSVVLQSRFAAVASTDEWIAAVQGGTPLARGNIYASNQKARARRATA”, the “soluble on expression in E. coli” value is reported as “not soluble”.
With “MAPTNKDGDVATVKAVDVLKQKAGAHHCLGNVHANLPVNKVTVHPLVLLSVVDHFNRVSKTQSVKRVVGVLLGSMKKDKTLDIGNSFAVPFDEDDKDKSTWFLDMDYLESMYGMFYKVAAKEKIVGWYHTGPKLHKNDIAINEQLKRFCPNPVLVIIDAEPKNIGLPTEAYIEVQEVHDDGTPPIKTFEHVPSDIGAEEAEEVGVEHLLRDIKDQTAGTLSQRITDQLMGLRGLQSQLESIEKYLHDIVRGTLPVNHHVIYYVQEVLNLLPDVTHPDYIVSQNVQTNDQLMCVYMGSLVRSVVALHNLIDNKISLQKAEKEQETGEAEKKKDEKDKKDKKDEKKDEKKEKDSKSSTPNTPKK” the “soluble on expression in E. coli” value was “not soluble”.
For “MAKDIRVLLYYLYTPIENAEQFAADHLAFCKSIGLKGRILVADEGINGTVSGDYETTQKYMDYVHSLPGMEELWFKIDEENEQAFKKMFVRYKKEIVHLGLEDNDFDNDINPLETTGAYLSPKEFKEALLDKDTVVLDTRNDYEYDLGHFRGAIRPDIRNFRELPQWVRDNKEKFMDKRVVVYCTGGVRCEKFSGWMVREGYKDVGQLHGGIATYGKDPEVQGELWDGKMYVFDERIAVDVNHVNPTIVGKDWFDGTPCERYVNCGNPFCNRRILTSEENEDKYLRGCSHECRVHPRNRYVSKNELTQAEVIERLAAIGESLDQAATVLEHHHHHH”, the “soluble on expression in E. coli” value was “soluble”.
For “GPGSMAVNILKAGFPVSVWNRTASKCDDLVAAGATACATPAELAAASDVVFTNLSDSPDVMEVVFGPNGVAAGICEGAIFVDNSTIKPSVAQEIARRLWKEKKVRALDAPVSGGDIGARNGTLTVMVGGDAAALATVLPVLLAVGKKVTHIGDCGAGQVCKAANQIMVAAQMVALGEILVFCEKCGVSGPTVIEAIKSGSAQCWTLDVKPDRLFAGNRAPGFKAALQSKDMGIVMDTAKEFGVPLPSTAVNTQLFQAMVQNGDGDRDNSAVVSVLERMANVHISEAERE”, the “soluble on expression in E. coli” value was “not soluble”.

Source: the DeepSol protein solubility set
